One assay addresses sNogoR310-Fc (rat) (UniProt Q99M75). In words: SPA, unlabelled Nogo1-40 (x axis Nogo1-40 [M]) displacing 125I-Nogo1-40-C from sNogoR310-Fc; the unit stands on the axis, not in the table.
Assay [1] concerns the target sNgR310 (recombinant fragment of rat NgR1, aa 27-310) (rat) (UniProt Q99M75). In words: SPA, unlabelled Nogo66 (x axis Nogo66 Conc [M]) displacing 125I-Nogo66 from sNogoR310; Bound SPA cpm falls from about 2900 to about 2050; the unit stands on the axis, not in the table.
The next assay deals with Nogo1-40. In words: SPA competition: Ig-sNogoR1-310 added in rising amount [ug] against binding of 125I-Nogo1-40-C to sNogoR310.
Sequence of Nogo1-40 (Q9NQC3 1055-1094): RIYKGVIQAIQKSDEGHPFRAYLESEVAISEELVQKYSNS

Sequence of sNgR310 (recombinant fragment of rat NgR1, aa 27-310) (rat) (Q99M75 other isoform, or with tags, fused parts or gaps): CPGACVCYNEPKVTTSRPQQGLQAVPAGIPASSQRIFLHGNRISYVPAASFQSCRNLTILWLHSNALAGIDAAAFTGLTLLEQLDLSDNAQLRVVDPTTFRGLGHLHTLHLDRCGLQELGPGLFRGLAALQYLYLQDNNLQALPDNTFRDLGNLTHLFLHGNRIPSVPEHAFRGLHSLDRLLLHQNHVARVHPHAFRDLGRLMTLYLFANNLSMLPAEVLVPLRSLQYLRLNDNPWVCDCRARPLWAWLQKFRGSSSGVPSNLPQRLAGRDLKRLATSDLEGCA
Sequence of sNogoR310-Fc (rat) (Q99M75 other isoform, or with tags, fused parts or gaps): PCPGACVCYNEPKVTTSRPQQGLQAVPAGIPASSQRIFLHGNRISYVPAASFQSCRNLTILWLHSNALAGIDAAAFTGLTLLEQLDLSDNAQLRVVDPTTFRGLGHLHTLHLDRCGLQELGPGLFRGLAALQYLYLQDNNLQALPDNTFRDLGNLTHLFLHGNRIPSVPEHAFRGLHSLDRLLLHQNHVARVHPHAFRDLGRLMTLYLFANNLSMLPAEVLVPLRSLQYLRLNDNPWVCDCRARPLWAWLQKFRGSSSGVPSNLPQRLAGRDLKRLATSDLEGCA
Sequence of Nogo1-40 (peptide) (Q9NQC3 1055-1094): as the sequence (Q9NQC3 1055-1094) above

In general, EC50 refers to the concentration at which the effect is half-maximal. For Nogo1-40 (peptide), the 50% effective concentration (EC50) in the assay with sNogoR310-Fc (rat) came to 120 nM. Regarding Nogo66 (ligand), the 50% effective concentration (EC50) in assay [1] is 303 nM. As usually defined, the IC50 is the point on the concentration scale where inhibition reaches its midpoint. The low end stands for greater potency, the high end for weaker potency. “sNogoR310-Fc (from UniProt Q99M75 26-310) (Fc fusion)” showed an IC50 with Nogo1-40 of 100 nM.

For the origin of these results see US8669345.
